From patent US20260117244A1, “INHIBITORY RNA FOR THE CONTROL OF PHYTOPATHOGENS” (priority 2021, published 2026)

B1: 79 (nucleic acid, listed as Golovinomyces orontii)
chain: ATGTCAGCATCTAGCCTTTCTCAGTCTACAGCTGAGAAAAGACACGAAGAATATCAGTATTTAGATCTGATCTCCGAAATAGTAGAGACAGGGGAGCATCGACCAGATCGAACTGGAACTGGAACCTTTTCTTTGTTCGCGCCAAAACCTTTAAAATTCCAGCTTTCTGAATCTGGAAAGCCGATTCTGCCCCTAATTACAACCAGGCGCATCTTCTTACGTGCTGTAATCACCGAACTTCTCTGGTTCATATCCGGCTCGACCTCCTCCATTCCTCTGGTAGAAGCAGGAATAAAGATTTGGGATGGAAATGGAACCCGTGAATATCTTGATTCGGTTGGTTTATCTCATCGTGATGTTGGAGATCTTGGTCCAATATATGGATTCCAATGGCGTCATTTTGGTGCCGACTACGTTGATGCTAACACTGACTATACTGGGAAAGGGGTTGATCAACTCGCTGAAGTTGTTGCAAAACTCAAGACAAATCCATATGACCGCCGCATTATTCTTACAGCCTGGAACCCGCGGGATCTAAAGTCAATGGCTTTACCGCCTTGTCATCTTCTTGCACAATTTTACGTCTCATTCCCACAAGGTAGTAAATCTGTTGGGACTCTTCACTGTCTTTTATATCAGCGTAGCTGCGACATGGGCCTTGGAGTACCATTTAATATTGCAAGCTATGCCTTACTCACTCATATGTTGGCTCATACATGCGAACTACTGCCTGGGACTTTGACGCACACCATGGGTGATGCACATGTCTATGCCGATCATGTTGAGGCTTTAAAAACACAACTGACACGTGAGCCGCGTCCATTCCCTGAAATTGAGATTAGGAAAGAAAAAGGAGGAAGTATAGACGGCTGGCTTGTCGATGATTTTCTCATCAAAGGCTACGAACCGCACAAGTCTATCTCGATGAAGATGTCGGTGTAA
modifications: listed as DNA
B2: 70 (nucleic acid, listed as Golovinomyces orontii)
chain: ATGTCAAGATCCCTTCACAATCTGAGCACCATTCAGAAGCTTTTTCCAATCTTGGGACCATCTCAAATTACTTCTAAGTTTTTGCTATGTTCACGTACATTATTTAGGCAGACTCGCTACAGTTCCCAATTTAATTTGGGCTATACCCGGGCCATTGAAAGGAAACCCTTAACTTTAAAGTCTATTGAATCTTTGTACAAAAGAGAGGAGCCCATCTTGGCACTCACTGCCCACGACTTTCCCAGTGGATATATTGCTGATGAAGCTGAGATTGAAATCGTACTTGTGGGAGACAGCCTGGCCATGGTAGCAATGGGGTTAGAAGATACAAGTGAGATTCTACTTGAAGAGATGCTACTCCATTGTCGCTCTGTTTCTCGAGCTGTGAAGACTGCTTTTACGGTAGGGGATCTTCCTATGGGATCCTATGAAGTATCCCCAGAACAGGCTCTAATTTCTGCTATTCGGATGATTAAGGAAGGTAGAGTAAAAGCTATTAAATTAGAAGGAGGCGCAGAAATGGGCCCAACCATAAAGAAAATAGTTACTGCCGGTATTCCGGTTCTCGGGCATATAGGGTTAACTCCGCAACGACAAAATTCTTTGGGCGGCTTCCGAGTACAAGGAAAGACCTCCAAGAGTGCACTCAAGATTCTTGAGGATGCATTAGCCATACAGGAAGCAGGCTGTTTTGCTGTTGTGATTGAGGCTATACCCGCAGAGGTAGCTACCATAATTACAAAGGAACTTTCAATCCCAACTATCGGTATTGGCGCTGGTAATGGCTGTTCAGGCCAAGTACTAGTTCAGGTTGATATGACTGGAAATTTTCCACCCGACCGTTCGATACCAAAATTTGTCAAAAAGTATTGTGACATTTGGAATGAGAGCTTGATGGGGATACGATCATATCGAGAAGAAACTAAGTGTAGGAAGTTTCCCGCACACGAACACACTTACTCAATCCCTAAAAATGAACTTGCTGAGTTCGAGAGAATACTAGCTTCTAAAGAACACTAG
modifications: listed as DNA
B3: 122 (nucleic acid, listed as Golovinomyces orontii)
chain: ATGAAAGCCAAACACCTAATTCTGACCATAGCGCTTGCGGCTACTGCGAGGGCAGAAGATCAATATGATGCTTCTGAACTACCACAGTTGAAACATCAGCAGTTAAGAATACCTTTTCCGACAGCTATTGCTGAATCGAAGTGCAGCTGTGCCACTGAATATATAACATCTACAGGCGAGGGTTTTCTTTATACTGCTGATGTATCATCAATTACCAAAAATTTTGATCCGCAACCGACTCACGAGTATCCTCTAATCGTTGAACCATCCATATCCGTTAATTGTCCGCCCCCGTCCACCATTACTGTAACCGAGACAAAATATATTACTTTGATGCCTGATCTAGCACCATCTGATCCTGCTAGTCCGATCTTAGAACCGCAAAATACCGATGCCGGACCAAACTCTCCATTAAATCCCTCTAGCCCGATATTAGATCACCCAAATACTGATACTGGGCCGCCTTCTCCACCTGCTCCAGTCGTTTCTAACATTGAGATATCTCCGTCAGCCCCAGACCCCAGCCCTGAAGTATCTTCAAAACCACATACTGGCACACTGGGATCTAACAATGGTCTGTGGGCAATCACTTTTTCTCCATTTAATGATGATGGAACGTGCAAAGGTGAGACTGCTGTTTGGGAAGATGTGCGCTTGATTCGTAGCGCTGGCTTCAAGGCAATTCGTGTCTATGGTACTGAATGTTCGGGAATTGAACACGTCAGTTCTGCCGCCAGTTTTCACGGACTAAAACTTATTATCGGTATATTTATCAGCGAATCTGGTTGTTCTGGTGCTGCGGAGCAAGTAACTCATATCACAAAATGGGCCAAATGGGAAATTGTCGAGCTAATTGTGATTGGAAACGAAGCCCTATTTAATGGCCATACTTCTCCAGATGAGCTCGCAAGATTTATTAGCTCAACCAGAAATACACTACGATCCTCTGGTTACAATGGACCTTGCACAACAGCTGAGCCTCTCAATATCTGGCAGCAAAGCTCGGATGTATTGTGTGGTGCAGTTGATATCGTTGGATGTAACATTCATCCATTTTTCAATCCAGAAGTTGACGCTAGTCATGCCGGACCTTTCGTCAAGAGTCAGCTCGAAATTGTTAATAACATTTGTCCAAGCAAATATGGTATCAACCTCGAATGTGGATGGCCTTCGGCTGGCGAGTGCAACGGCAAGGCTTGTCCTGGTGAGTCGGAGCAAAAAATTGCTGTGGAAAGCATTCAGTCATTTGCTGGCAACGTGTCGGTAATGTTTACATACACCAACGATAAATGGAAAGACCCAGGCCCCCTCAAGATTGAGCAGAGTTTCGGATTAATTAAGCTCCTGAATAGCCACTAG
modifications: listed as DNA
B4: 87 (nucleic acid, listed as Golovinomyces orontii)
chain: ATGCCTCTACGAAGAATACTAAAGAAGTCAAAATACGCCAAAAAGAGTCCAGAAGAAGAGACTGTCATAACACCCATCTTATTTATGCGTAGCGACACAAAAACAGAGGAGATTATTTATCCACCTAGTTATCCTGATCATGAAGAATCCTTACGCAGTAAAAAGGGGCGAAACAAGAAGGAAATACCTAGGACCCCTTCGGAATCTCGTAAATCATCTCTTAGACTCAAGCCAAACTTTCTGAAAAACCAGAAATCCGAAAAGGTGCCAGAAAATCTGCCAGATATAGAGATCATTGCTGATCAGGTCGAGAGGAGAATCAGGGCACAATGGGAAAAACGTGCGACAATTCTAGCCAAAAGAAATGAGGAAACAACAGCTAAGTATCTATCAATCACTGACGATAAACATGCAAAGGAGGTGAGAATGGCGAGAGAGCTGGACGAGGCAAATTCGGCCAACGATAACATTATAGAAGCAATTAGACTACATGAAGCGGGGAGCCGGCTGGCGGAGTTCCAAAATGAGAATAATACCCTCAGTCAAGTATTGTACGGTCTTTCTTTAAGGTACGCATGGCTGGGGATGTACTCCAGATCCGGAAAAGGCACTCAAATACCTTCAGCTGCAGCATCGTGTGCAGCCTCAATCGAGGATTTAGCACTTAGGGCGGGGAAGAAAAGTGGAGGAGCAGCGAAAGATGAATTAGTTCTTGCTATTTACGAGCTCGCAAATAGTTTTAGACATGGCTGGGGAATTCCGATCGACCGAGTGGCTGCGAAACAGTACTATGAGACGGCAGCTAATTTGGGTGATACGGACGCTATGAATGAAGTGGCCCGATGTTATGCCGAAGGAATCGGTTGCAAGAAAGACATGTTTGTGGCTGCTAAATACTACAGGATGGCTGAGAGTAAGGGTAACAAAATCATTGGAAACTCCTGGTACGTTGCAATTTTTGCTCTCTAA
modifications: listed as DNA
B5: 64 (nucleic acid, listed as Golovinomyces orontii)
chain: ATGGAGGCATGTGTGATCGACGTGGTGGCTACTAGGGTAGACGATTGCGAAACTCCAGCGTCGAAAGATACCTCCAACGCTTGGTGTCATCCAGGAGCTGCCGCTTTCGATTTTCGCAGTGATGTCTTTACTTCACCGACTTGCTCAATGCTCGAAGCAATCAAAAACACAACCTTACTCGATGATGTCTATCAGGCTGATCCTACCACAAATGATCTGGAATCACACTTGGCAGCGCGCACATCTCATGCCGCAGCACTGTTTGTCTTGTCTGGCACTATGGGGAATCAAATAGCTCTACGTTCTCACTTGCAACAACCACCGTATGCAATTCTTTGCGATCATCGAAGTCATATTTTTCAATGGGAAGCGGGCGGCGTTGCAAGTCTCTGCGGTGCACTTGTCAAAACTGTTGTACCAGCAAACGGTGAGTATCTTACTCGGGAAGATATTGAGAGTAATGTTGTGCTTGGTGATGATATTCATAGTACGCCTACTCGGGTTATATCTCTTGAAAATACACTGGGTGGCATTGTAATACCGCTAGAGGAGACGCGACGTATAACGAATTTTGCTCGAGAAAACAATATCAAGGTTCACCTTGATGGTGCACGATTGTGGGAGGCAGTCGCTGCAGGTGCAGGTTCACTTACCGATTATTGTGCTCTGTTTGATAGTGTAAGTCTATGTTTCTCCAAGGGACTCGGAGCACCAGTCGGCAGTATTTTAGTTGGTGGAGAGGCTTTTATCAAACATGCTAGATGGATAAGAAAGTCGATTGGTGGCGGCCTTCGTCAGCCTGGTCTGTTAACAGCAACAGCCAGGGTTGCTCTGGATGAAACGTTTGGAAGTGGCCCTTGGGGTGAAGGCGGAAAGCTAAAAGGCACTCACTTTGTAGCGAAAAGGATAACTGCACTCTGGACGTCGCTAGGTGGGAAACTACTGAGGAGGACCGAGACAAATATGGTTTGGTTAGATCTTGAGGGTTCTAAGATTAGTGTAGAGACGTTTGTGAAAATTGGAGCAGAGCATGGGGTAGCACTCGAAGGTCCAAGGCTAGTGGTGCATTATCAAATTGAAGACGCTGCAGTAGAGAAGTTAAAAGCAGTTTTTGAACAGGTCCTGCTTAAAACCTAG
modifications: listed as DNA

Tested on: G. orontii MGH1
Experiment: Spray-induced gene silencing (SIGS), G. orontii spore production on A. thaliana (whole plant and detached leaf assays)
Format: in vivo, Golovinomyces orontii
Conditions: topical dsRNA against G. orontii target (Gor Seq ID), n>=3

Row | Molecule | G. orontii Spore Production on Arabidopsis, Detached Leaf Assay, % reduction | G. orontii Spore Production on Arabidopsis, Whole Plant Assay, % reduction (whole plant assay)
1 | B1 | 68% | –
2 | B2 | 46% | –
3 | B3 | – | 33%
4 | B4 | 42% | –
5 | B5 | 55% | –
